Assay [1] has as its target human serum-derived IgG (SIGMA, #14506, Lot #SLBR0560V) (human). Briefly: elution at pH 3.5 from the 1-ml Z33 column, A280.
Assay [2] shares this target. Briefly: frontal loading of 0.67 mg/ml IgG on a 1-ml Z33 column (912 nmol), 20 mM phosphate pH 7.0.

As to “IgG-bound peptide Z33 Acetyl-…-NH2, immobilized on a HiTrap NHS-activated HP column”, the amount of the antibody bound to the column in assay [1] worked out at 19 mg. In assay [2], the dynamic binding capacity (DBC) was found to be 26 mg.
